# Source: patent US20230118307A1, “THERAPEUTIC USE OF LONG-ACTING CONJUGATE OF TRIPLE AGONIST HAVING ACTIVITIES TO ALL OF GLUCAGON/GLP-1/GIP RECEPTORS FOR LUNG DISEASE” (HANMI PHARM. CO., LTD., priority 2020, published 2023)
# Positions of bridges follow the written chain, without caps; N, C: chain ends. Non-standard residues stand in square brackets, D forms with d. No end group written: not given here. *: point of attachment. Acetyl(2-(4-imidazolyl)) = O=C(Cc1c[nH]cn1)*; Aib = CC(C)(N)C(=O)O
# T1: human GIP receptor (human, UniProt P48546 22-466)
# T1 sequence (looked up): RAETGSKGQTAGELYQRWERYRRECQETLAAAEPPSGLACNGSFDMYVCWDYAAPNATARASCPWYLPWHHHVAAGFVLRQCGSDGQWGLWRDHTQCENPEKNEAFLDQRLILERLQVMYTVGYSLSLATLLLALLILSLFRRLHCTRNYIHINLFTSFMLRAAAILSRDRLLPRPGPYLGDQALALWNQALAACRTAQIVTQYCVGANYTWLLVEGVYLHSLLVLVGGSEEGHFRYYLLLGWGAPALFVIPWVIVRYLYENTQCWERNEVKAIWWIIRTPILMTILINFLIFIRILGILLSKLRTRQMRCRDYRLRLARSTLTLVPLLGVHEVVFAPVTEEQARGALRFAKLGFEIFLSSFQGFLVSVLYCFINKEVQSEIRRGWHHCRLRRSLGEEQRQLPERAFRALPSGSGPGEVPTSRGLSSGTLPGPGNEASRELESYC
# Molecular target: human GLP-1 receptor (human, UniProt P43220 24-463)
# Assay: cell-based or functional assay
row,Binder,In vitro Activity Compared to Native Peptide (%) vs. GLP-1 [%]
1,{Acetyl(2-(4-imidazolyl))}-[Aib]QGTFTSDYSIAMDEKHCKDFVNWLLNTK (bridge 15-19) [triple agonist of SEQ ID NO: 60],106
2,H[Aib]QGTFTSDYSKYLDEKRQKEFVNWLLAQKC (bridge 16-20) [triple agonist of SEQ ID NO: 34],19.1
3,H[Aib]EGTFTSDYSIAMDEIHQKDFVNWLLAQC (bridge 16-20) [triple agonist of SEQ ID NO: 53],161
4,H[Aib]QGTFTSDYSKYLDEKRQKEFVNWLLAQC (bridge 16-20) [triple agonist of SEQ ID NO: 56],57.9
5,H[Aib]QGTFTSDYSKYLDEKRQKEFVQWLLDTC (bridge 16-20) [triple agonist of SEQ ID NO: 52],44.1
6,HGQGTFTSDCSKQLDGQAAQEFVAWLLAGGPSSGAPPPS [triple agonist of SEQ ID NO: 44],1.3
7,HGQGTFTSDCSKYLDGQRAQDFVNWLLAGGPSSGAPPPS [triple agonist of SEQ ID NO: 48],1.5
8,HGQGTFTSDCSKYLDEQHAQEFVAWLLAGGPSSGAPPPS [triple agonist of SEQ ID NO: 46],1.4
9,HGQGTFTSDCSKYMDGQAAQDFVAWLLAGGPSSGAPPPS [triple agonist of SEQ ID NO: 45],6.6
10,HGQGTFTSDCSKYLDGQRAQEFVAWLLAGGPSSGAPPPS [triple agonist of SEQ ID NO: 47],2.4
11,H[Aib]QGTFTSDYSKYLDEKRQKEFVQWLLNTKC (bridge 16-20) [triple agonist of SEQ ID NO: 58],39.1
12,H[Aib]QGTFTSDVSSYLDGQAAKEFVAWLLKGC [triple agonist of SEQ ID NO: 6],17
13,H[Aib]QGTFTSDVSSYLLGQQQKEFIAWLVKGGGPSSGAPPPSC (ends and bridges not checked) [triple agonist of SEQ ID NO: 5],42.1
14,H[Aib]QGTFTSDYSIAMDEIHQKDFVNWLLNTC (bridge 16-20) [triple agonist of SEQ ID NO: 57],11.7
15,H[Aib]QGTFTSDYSKYLDEKRAKEFVQWLLDHHPSSGQPPPSC (bridge 16-20) [triple agonist of SEQ ID NO: 50],67.4

# Molecular target: human GCG receptor (human, UniProt P47871 26-477)
# Assay: cell-based or functional assay
# human GCG receptor, sequence (P47871 26-477): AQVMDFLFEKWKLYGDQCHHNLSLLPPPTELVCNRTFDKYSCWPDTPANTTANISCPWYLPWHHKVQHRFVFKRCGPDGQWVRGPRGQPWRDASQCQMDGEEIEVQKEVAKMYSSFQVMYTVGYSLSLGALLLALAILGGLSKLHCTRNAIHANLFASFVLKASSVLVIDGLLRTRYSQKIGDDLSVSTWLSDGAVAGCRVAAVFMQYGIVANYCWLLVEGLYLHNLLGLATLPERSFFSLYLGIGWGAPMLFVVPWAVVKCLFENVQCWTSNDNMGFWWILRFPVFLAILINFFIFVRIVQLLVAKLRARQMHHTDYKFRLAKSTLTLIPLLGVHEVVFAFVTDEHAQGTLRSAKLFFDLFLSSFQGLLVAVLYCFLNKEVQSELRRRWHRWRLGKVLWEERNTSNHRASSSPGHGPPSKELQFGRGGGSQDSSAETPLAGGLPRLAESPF
row,Binder,In vitro Activity Compared to Native Peptide (%) vs. Glucagon [%]
1,{Acetyl(2-(4-imidazolyl))}-[Aib]QGTFTSDYSIAMDEKHCKDFVNWLLNTK (bridge 15-19) [triple agonist of SEQ ID NO: 60],< 0.1
2,H[Aib]QGTFTSDYSKYLDEKRQKEFVNWLLAQKC (bridge 16-20) [triple agonist of SEQ ID NO: 34],0.92
3,H[Aib]EGTFTSDYSIAMDEIHQKDFVNWLLAQC (bridge 16-20) [triple agonist of SEQ ID NO: 53],8.4
4,H[Aib]QGTFTSDYSKYLDEKRQKEFVNWLLAQC (bridge 16-20) [triple agonist of SEQ ID NO: 56],4.9
5,H[Aib]QGTFTSDYSKYLDEKRQKEFVQWLLDTC (bridge 16-20) [triple agonist of SEQ ID NO: 52],7.5
6,HGQGTFTSDCSKQLDGQAAQEFVAWLLAGGPSSGAPPPS [triple agonist of SEQ ID NO: 44],< 0.1
7,HGQGTFTSDCSKYLDGQRAQDFVNWLLAGGPSSGAPPPS [triple agonist of SEQ ID NO: 48],< 0.1
8,HGQGTFTSDCSKYLDEQHAQEFVAWLLAGGPSSGAPPPS [triple agonist of SEQ ID NO: 46],< 0.1
9,HGQGTFTSDCSKYMDGQAAQDFVAWLLAGGPSSGAPPPS [triple agonist of SEQ ID NO: 45],< 0.1
10,HGQGTFTSDCSKYLDGQRAQEFVAWLLAGGPSSGAPPPS [triple agonist of SEQ ID NO: 47],< 0.1
11,H[Aib]QGTFTSDYSKYLDEKRQKEFVQWLLNTKC (bridge 16-20) [triple agonist of SEQ ID NO: 58],2.6
12,H[Aib]QGTFTSDVSSYLDGQAAKEFVAWLLKGC [triple agonist of SEQ ID NO: 6],< 0.1
13,H[Aib]QGTFTSDVSSYLLGQQQKEFIAWLVKGGGPSSGAPPPSC (ends and bridges not checked) [triple agonist of SEQ ID NO: 5],< 0.1
14,H[Aib]QGTFTSDYSIAMDEIHQKDFVNWLLNTC (bridge 16-20) [triple agonist of SEQ ID NO: 57],< 0.1
15,H[Aib]QGTFTSDYSKYLDEKRAKEFVQWLLDHHPSSGQPPPSC (bridge 16-20) [triple agonist of SEQ ID NO: 50],50.5

# Molecular target: T1, human GIP receptor
# Assay: cell-based or functional assay
row,Binder,In vitro Activity Compared to Native Peptide (%) vs. GIP [%]
1,{Acetyl(2-(4-imidazolyl))}-[Aib]QGTFTSDYSIAMDEKHCKDFVNWLLNTK (bridge 15-19) [triple agonist of SEQ ID NO: 60],8.2
2,H[Aib]QGTFTSDYSKYLDEKRQKEFVNWLLAQKC (bridge 16-20) [triple agonist of SEQ ID NO: 34],0.6
3,H[Aib]EGTFTSDYSIAMDEIHQKDFVNWLLAQC (bridge 16-20) [triple agonist of SEQ ID NO: 53],1.3
4,H[Aib]QGTFTSDYSKYLDEKRQKEFVNWLLAQC (bridge 16-20) [triple agonist of SEQ ID NO: 56],0.8
5,H[Aib]QGTFTSDYSKYLDEKRQKEFVQWLLDTC (bridge 16-20) [triple agonist of SEQ ID NO: 52],0.3
6,HGQGTFTSDCSKQLDGQAAQEFVAWLLAGGPSSGAPPPS [triple agonist of SEQ ID NO: 44],< 0.1
7,HGQGTFTSDCSKYLDGQRAQDFVNWLLAGGPSSGAPPPS [triple agonist of SEQ ID NO: 48],< 0.1
8,HGQGTFTSDCSKYLDEQHAQEFVAWLLAGGPSSGAPPPS [triple agonist of SEQ ID NO: 46],< 0.1
9,HGQGTFTSDCSKYMDGQAAQDFVAWLLAGGPSSGAPPPS [triple agonist of SEQ ID NO: 45],< 0.1
10,HGQGTFTSDCSKYLDGQRAQEFVAWLLAGGPSSGAPPPS [triple agonist of SEQ ID NO: 47],< 0.1
11,H[Aib]QGTFTSDYSKYLDEKRQKEFVQWLLNTKC (bridge 16-20) [triple agonist of SEQ ID NO: 58],0.2
12,H[Aib]QGTFTSDVSSYLDGQAAKEFVAWLLKGC [triple agonist of SEQ ID NO: 6],< 0.1
13,H[Aib]QGTFTSDVSSYLLGQQQKEFIAWLVKGGGPSSGAPPPSC (ends and bridges not checked) [triple agonist of SEQ ID NO: 5],< 0.1
14,H[Aib]QGTFTSDYSIAMDEIHQKDFVNWLLNTC (bridge 16-20) [triple agonist of SEQ ID NO: 57],0.3
15,H[Aib]QGTFTSDYSKYLDEKRAKEFVQWLLDHHPSSGQPPPSC (bridge 16-20) [triple agonist of SEQ ID NO: 50],2.7
